Series [1] can be described thus: Stability of liquid pharmaceutical forms (peptide 0.2 %, benzalkonium chloride 0.01 %, water) during storage; single and total impurities. In kind it is physicochemical. The text has this: Investigations of the Stability of Pharmaceutical Forms Containing Peptides Having the Property of Stimulating the Genital and Sexual Functions
This experiment investigated the stability of compositions containing peptides according to the invention. The results of the investigations are illustrated by the example of several peptides according to the invention containing hydroxyproline, in particular Thr-Lys-Hyp […], Thr-Lys-Hyp-Arg-Hyp (SEQ ID NO: 13), Thr-Lys-Hyp-Arg-Hyp-Phe and Thr-Lys-Hyp-Arg-Hyp-Gly-Hyp (SEQ ID NO: 14).
The peptides described in RU2507212 were also obtained, in particular Thr-Lys-Pro, Thr-Lys-Pro-Arg-Pro (SEQ ID NO: 6), Thr-Lys-Pro-Arg-Pro-Phe (SEQ ID NO: 7) and Thr-Lys-Pro-Arg-Pro-Gly-Pro (SEQ ID NO: 1).
From the compounds obtained, a liquid pharmaceutical form (a solution) was prepared, including the peptide and the preservative benzalkonium chloride with the following ratio of components: 0.2 and 0.01 mass %, respectively, water the rest. Samples were placed in storage at two temperature regimes, namely, +4° C. and +25° C. Investigation of the stability of the peptides was carried out after 1, 3, 6, 12, and 24 months of storage. In the investigation of the samples for stability, the quantity of single impurities and the total quantity of impurities were evaluated, testifying to the degradation of the peptides. The pharmaceutical requirements of the company for impurities are: any single impurity, not more than 1.5%; total content of impurities, not more than 3.0%. If the content of impurities exceeded the above indicated values, the pharmaceutical form was deemed to have failed the test for stability.

Series [2] concerns female rats. Nature of the series: Efficacy in vivo on preclinical model (Lordoz test): proceptive behavior of ovarioectomized, hormonally stimulated females. The note with it: 100 mcg/rat, progesterone 0.5 mg/rat. The protocol:
Investigation of the Efficacy of the Peptides of the Invention as a Means of Stimulating the Genital and Sexual Functions
In order to confirm the efficacy as a means of stimulating the genital and sexual functions, peptides according to the invention were synthesized, in particular the tripeptide Thr-Lys-Hyp, the pentapeptide Thr-Lys-Hyp-Arg-Hyp (SEQ ID NO: 12), and the hexapeptide Thr-Lys-Hyp-Arg-Hyp-Phe (SEQ ID NO: 13), and tests were performed as to the efficacy in vivo on the relevant preclinical model (Lordoz test). Furthermore, the efficacy of the group of peptides Thr-Lys-Pro, Thr-Lys-Pro-Arg-Pro (SEQ ID NO: 6), and Thr-Lys-Pro-Arg-Pro-Phe (SEQ ID NO: 7) was also investigated.
The efficacy of the aforementioned groups of peptides was investigated in a dose of 100 mcg/rat with respect to the sexual behavior of female rats. The sexual behavior was registered over the course of 0-16 days in ovarioectomized, hormonally stimulated females in the case of direct contact with sexually active males and in the case when no such contact was possible. […] The results testify to an increase in sexual motivation under the action of the peptides Thr-Lys-Hyp, Thr-Lys-Hyp-Arg-Hyp (SEQ ID NO: 12), and Thr-Lys-Hyp-Arg-Hyp-Phe (SEQ ID NO: 13).

[3] abbreviates: stored for 1 month at +4° C., solution 0.2 mass % peptide, 0.01 mass % benzalkonium chloride.
Setting [4] is: stored for 1 month at +25° C., solution 0.2 mass % peptide, 0.01 mass % benzalkonium chloride.
The mark [5] stands for this setting: stored for 12 months at +25° C.
The mark [6] stands for this setting: stored for 24 months at +25° C.

Non-standard residues stand in square brackets, D forms with d. No end group written: not given here. Hyp = O=C(O)[C@@H]1C[C@@H](O)CN1

For the substance “Thr-Lys-Hyp-Arg-Hyp (TK[Hyp]R[Hyp]) [pentapeptide of the invention containing hydroxyproline]”, the Single impurities in series [1] (setting [3]) came to 0.03%; in series [1] (setting [4]), 0.046%; in series [1] (stored for 3 months at +4° C.), 0.03%; in series [1] (stored for 3 months at +25° C.) it was 0.047%; in series [1] (stored for 6 months at +4° C.) it was 0.04%; in series [1] (stored for 6 months at +25° C.), 0.1%. The Single impurities in series [1] (stored for 12 months at +4° C.) was determined as 0.07%; in series [1] (setting [5]), 0.2%; in series [1] (stored for 24 months at +4° C.) it was 0.1%; in series [1] (setting [6]), 0.9%. Moreover, the Total impurities in series [1] (setting [3]) is 0.09%; in series [1] (setting [4]), 0.14%; in series [1] (stored for 3 months at +4° C.) it was 0.09%; in series [1] (stored for 3 months at +25° C.) it was 0.15%; in series [1] (stored for 6 months at +4° C.) it was 0.1%; in series [1] (stored for 6 months at +25° C.), 0.7%. Moreover, the Total impurities in series [1] (stored for 12 months at +4° C.) is reported as 0.2%; in series [1] (setting [5]), 0.9%; in series [1] (stored for 24 months at +4° C.) it was 0.7%; in series [1] (setting [6]) it was 1.2%. For the same substance, the “Number of proceptive behavior acts” value was found to be 13 ± 4 in series [2] (day 0 of giving the drug), 38 ± 4 in series [2] (day 5 of giving the drug), 36 ± 4 in series [2] (day 11 of giving the drug) and 36 ± 6 in series [2] (day 16 of giving the drug).

Regarding “Thr-Lys-Hyp-Arg-Hyp-Gly-Hyp (TK[Hyp]R[Hyp]G[Hyp]) [peptide according to the invention containing hydroxyproline]”, the Single impurities in series [1] (setting [3]) is listed as 0.049%; in series [1] (setting [4]) it was 0.069%; in series [1] (stored for 3 months at +4° C.), 0.05%; in series [1] (stored for 3 months at +25° C.) it was 0.07%; in series [1] (stored for 6 months at +4° C.), 0.06%; in series [1] (stored for 6 months at +25° C.) it was 0.09%. The Single impurities in series [1] (stored for 12 months at +4° C.) was found to be 0.09%; in series [1] (setting [5]), 0.3%; in series [1] (stored for 24 months at +4° C.), 0.1%; in series [1] (setting [6]) it was 1.2%. The Total impurities in series [1] (setting [3]) was 0.12%; in series [1] (setting [4]), 0.14%; in series [1] (stored for 3 months at +4° C.) it was 0.12%; in series [1] (stored for 3 months at +25° C.) it was 0.5%; in series [1] (stored for 6 months at +4° C.) it was 0.14%; in series [1] (stored for 6 months at +25° C.) it was 0.9%. The Total impurities in series [1] (stored for 12 months at +4° C.) is reported as 0.3%; in series [1] (setting [5]), 1.1%; in series [1] (stored for 24 months at +4° C.), 1.1%; in series [1] (setting [6]) it was 2.6%.

Regarding “Thr-Lys-Hyp-Arg-Hyp-Phe (TK[Hyp]R[Hyp]F) [hexapeptide of the invention containing hydroxyproline]”, the Single impurities is 0.067% in series [1] (setting [3]); 0.032% in series [1] (setting [4]); 0.068% in series [1] (stored for 3 months at +4° C.); 0.033% in series [1] (stored for 3 months at +25° C.); 0.08% in series [1] (stored for 6 months at +4° C.); 0.09% in series [1] (stored for 6 months at +25° C.). The Single impurities in series [1] (stored for 12 months at +4° C.) is recorded as 0.1%; in series [1] (setting [5]) it was 0.4%; in series [1] (stored for 24 months at +4° C.), 0.9%; in series [1] (setting [6]) it was 1.3%. For the same substance, the Total impurities was found to be 0.15% in series [1] (setting [3]); 0.09% in series [1] (setting [4]); 0.15% in series [1] (stored for 3 months at +4° C.); 0.09% in series [1] (stored for 3 months at +25° C.); 0.2% in series [1] (stored for 6 months at +4° C.); 0.6% in series [1] (stored for 6 months at +25° C.). Besides, the Total impurities in series [1] (stored for 12 months at +4° C.) stood at 0.3%; in series [1] (setting [5]), 0.8%; in series [1] (stored for 24 months at +4° C.), 1.9%; in series [1] (setting [6]) it was 2.7%. In addition, the “Number of proceptive behavior acts” value in series [2] (day 0 of giving the drug) is on record as 14 ± 4; in series [2] (day 5 of giving the drug), 24 ± 4; in series [2] (day 11 of giving the drug), 23 ± 4; in series [2] (day 16 of giving the drug) it was 24 ± 4.

On to Thr-Lys-Pro [reference compound], for which the Single impurities in series [1] (setting [3]) turned out to be 0.051%; in series [1] (setting [4]), 0.06%; in series [1] (stored for 3 months at +4° C.), 0.053%; in series [1] (stored for 3 months at +25° C.), 0.13%; in series [1] (stored for 6 months at +4° C.), 0.3%; in series [1] (stored for 6 months at +25° C.), 1.7%. The Single impurities is 0.9% in series [1] (stored for 12 months at +4° C.) and 1.2% in series [1] (stored for 24 months at +4° C.). In addition, the Total impurities in series [1] (setting [3]) came out at 0.13%; in series [1] (setting [4]) it was 0.1%; in series [1] (stored for 3 months at +4° C.) it was 0.135%; in series [1] (stored for 3 months at +25° C.), 0.25%; in series [1] (stored for 6 months at +4° C.), 0.9%; in series [1] (stored for 6 months at +25° C.), 3.1%. Besides, the Total impurities was 1.7% in series [1] (stored for 12 months at +4° C.) and 2.2% in series [1] (stored for 24 months at +4° C.). The “Number of proceptive behavior acts” value is given as 14 ± 4 in series [2] (day 0 of giving the drug), 15 ± 4 in series [2] (day 5 of giving the drug), 20 ± 4 in series [2] (day 11 of giving the drug) and 28 ± 4 in series [2] (day 16 of giving the drug).

As to “Thr-Lys-Pro-Arg-Pro (TKPRP; not fully specified; printed as Thr-Lys-Pro-Arg-Pro) [pentapeptide described in RU2507212, comparison peptide, reference compound]”, the Single impurities is 0.042% in series [1] (setting [3]); 0.067% in series [1] (setting [4]); 0.042% in series [1] (stored for 3 months at +4° C.); 0.19% in series [1] (stored for 3 months at +25° C.); 0.09% in series [1] (stored for 6 months at +4° C.); 1.4% in series [1] (stored for 6 months at +25° C.). Further, the Single impurities in series [1] (stored for 12 months at +4° C.) came out at 0.8%; in series [1] (setting [5]) it was 4%; in series [1] (stored for 24 months at +4° C.), 1.1%. For the same substance, the Total impurities in series [1] (setting [3]) is reported as 0.09%; in series [1] (setting [4]), 0.54%; in series [1] (stored for 3 months at +4° C.), 0.93%; in series [1] (stored for 3 months at +25° C.), 0.9%; in series [1] (stored for 6 months at +4° C.), 1%; in series [1] (stored for 6 months at +25° C.), 3.0%. Moreover, the Total impurities in series [1] (stored for 12 months at +4° C.) turned out to be 1.5%; in series [1] (setting [5]), 6%; in series [1] (stored for 24 months at +4° C.), 1.9%. For the same substance, the “Number of proceptive behavior acts” value is 12 ± 4 in series [2] (day 0 of giving the drug), 15 ± 4 in series [2] (day 5 of giving the drug), 24 ± 4 in series [2] (day 11 of giving the drug) and 36 ± 6 in series [2] (day 16 of giving the drug).

Regarding “Thr-Lys-Pro-Arg-Pro-Gly-Pro (TKPRPGP; not fully specified; printed as Thr-Lys-Pro-Arg-Pro-Gly-Pro) [heptopeptide “Selank”, a synthetic analogue of the endogenous peptide tuftsin, reference compound]”, the Single impurities was determined as 0.05% in series [1] (setting [3]); 0.065% in series [1] (setting [4]); 0.07% in series [1] (stored for 3 months at +4° C.); 0.9% in series [1] (stored for 3 months at +25° C.); 0.8% in series [1] (stored for 6 months at +4° C.); 1.7% in series [1] (stored for 6 months at +25° C.). The Single impurities amounted to 1% in series [1] (stored for 12 months at +4° C.) and 2% in series [1] (stored for 24 months at +4° C.). The Total impurities in series [1] (setting [3]) is 0.17%; in series [1] (setting [4]) it was 0.13%; in series [1] (stored for 3 months at +4° C.), 0.2%; in series [1] (stored for 3 months at +25° C.), 1.2%; in series [1] (stored for 6 months at +4° C.) it was 1.4%; in series [1] (stored for 6 months at +25° C.), 3.1%. Further, the figures for the Total impurities in series [1] (stored for 12 months at +4° C.) and in series [1] (stored for 24 months at +4° C.) were 1.7% and 3.7%, respectively.

The values are drawn from patent publication US10836794B2, “Group of peptides for treating female sexual dysfunction” (“IVIX” Ltd., priority 2016, dated 2020).
